Results from article PMC11148069 (2024).

Experiments:
xNup93-Nb1t = experiment: BLI
xhNup93-Nb3t = experiment: BLI

Kd (xNup93-Nb1t): 100 pM | Kd (xhNup93-Nb3t): < 10 pM
B1: recombinant Xenopus Nup93 target (BLI) (natural protein)
chain: MDGEGFGELLQQAEQLAAETEGVTELPHVERNLQEIQQAGERLRSKTMTRTSQESANVKASVLLGSRGLDISHISQRLESLSAATTFEPLEPVKDTDIQGFLKNEKDNALLSAIEESRKRTFVMAEEYHRESMLVEWEQVKQRVLHTLLASGEDALDFTQESETSYISESGAPGRSSLDNVEMAYARQMYMYNEKVVSGHLQPSLVDLCTEAAERLDDKNVSDLWVMVKQMTDVPLIPASDTLKSRCSGQMQMAFVRQALNYLEQSYKNYTLISVFANLQQAQLGGVPGTYNLVRSFLNIRLPTPIPGLQDGEIEGYPVWALIYYCMRCGDLMAAQQVVNRAQHQLGDFKNCFQEYIHNKDRRLSPTTENKLRLHYRRAVRASTDPYKRAVYCIIGRCDVSDNHSEVADKTEDYLWLKLSQVCFEDEANSSPQDRLTLPQFQKQLFEDYGESHFAVNQQPYLYFQVLFLTAQFEAAIAFLFRLERTRCHAVHVALALFELKLLLKSTGQSAQLLSQEPGEPQGVRRLNFIRLLMLYTRKFEPTDPREALQYFYFLRNEKDNQGESMFLRCVSELVIESREFDMLLGKLEKDGSRKPGAIDKFTRDTKTIINKVASVAENKGLFEEAAKLYDLAKNPDKVLELTNKLLSPVVSQISAPQSNRERLKNMALAIAERYKSQGVSAEKSINSTFYLLLDLITFFDEYHAGHIDLSFDVIERLKLVPLSQDSVEERVAAFRNFSDEIRHNLSEILLATMNILFTQYKRLKGSGPTTLGRPQRVQEDKDSVLRSQARALITFAGMIPYRMSGDTNARLVQMEVLMN
